How the values were obtained:
[1] = target: TβRII-SE/Fc (TβRII-Soluble Endogenous fused to the human IgG1 Fc domain) (human); test: SPR; Biacore 3000, CM5 chip with anti-human Fc mixed with anti-mouse Fc antibodies; TβRII-SE/Fc or TβRII-Fc captured to 100–140 RU; TGF-β1, -β2 or -β3 injected at 0.4 to 30 nM, 50 μl/min, association 90 s, dissociation 300 s (900 s for slow rates); 0.1% surfactant; double referencing; 1:1 binding model; stoichiometry from Rmax and mass ratios
[2] = target: TβRII-Fc (TβRII extracellular domain fused to human IgG1 Fc) (human) (UniProt P37173); test: as above
Chain of TβRII-Fc (TβRII extracellular domain fused to human IgG1 Fc) (human) (P37173 23-166): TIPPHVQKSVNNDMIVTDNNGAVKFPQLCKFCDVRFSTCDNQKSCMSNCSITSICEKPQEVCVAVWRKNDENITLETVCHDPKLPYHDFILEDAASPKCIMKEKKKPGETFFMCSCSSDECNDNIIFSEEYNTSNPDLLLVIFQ

| Substance | stoichiometry N (TGF-β dimer per bivalent Fc ligand) [1] | stoichiometry N (TGF-β dimer per bivalent Fc ligand) [2] |
| --- | --- | --- |
| TGF-β2 (ligand) | 1 | 1 |
| TGF-β3 (ligand) | 1 |  |
| TGF-β1 (ligand) | 1 | 1 |
